Assay results published in article doi:10.1101/2023.12.15.570541.
pKd: −log10 of the molar value.

Target: MFSD1-strep (mouse Major Facilitator Superfamily Domain Containing 1 with N-terminal Twin-Streptavidin-tag) (mouse) (UniProt Q9DC37)
Assay: nanoDSF

Sequence of UniProt Q9DC37 (Q9DC37 whole entry, the tested form may be a part): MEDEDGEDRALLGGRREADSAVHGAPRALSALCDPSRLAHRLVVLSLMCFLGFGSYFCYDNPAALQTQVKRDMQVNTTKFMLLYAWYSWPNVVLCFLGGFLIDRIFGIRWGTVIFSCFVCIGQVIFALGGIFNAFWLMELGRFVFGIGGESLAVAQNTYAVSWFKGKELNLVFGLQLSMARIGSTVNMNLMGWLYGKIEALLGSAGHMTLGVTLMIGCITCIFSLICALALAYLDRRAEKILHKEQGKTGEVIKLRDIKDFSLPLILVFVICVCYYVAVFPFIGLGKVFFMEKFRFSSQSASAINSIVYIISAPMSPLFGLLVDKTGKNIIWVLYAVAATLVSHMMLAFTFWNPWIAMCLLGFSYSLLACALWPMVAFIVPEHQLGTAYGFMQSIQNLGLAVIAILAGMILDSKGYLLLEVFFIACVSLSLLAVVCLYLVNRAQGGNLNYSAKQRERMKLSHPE

Substance	pKd	ΔTm
His-Ala (peptide)	2.17	
Leu-Leu (peptide)		14 °C
Lys-Val (peptide)	2.37	

More lines, in order of rising pKd, values ahead:

pKd	ΔTm	Substance
2.66		Leu-Ala (peptide)
3.12	12 °C	His-Lys (peptide)
3.50	12.1 °C	Pro-Arg (peptide)
